Test results reported in patent US20240325495A1, “FUSION PROTEINS FOR THE TREATMENT OF DISEASE” (Bristol-Myers Squibb Company, priority 2020, published 2024).

What was measured:
self-blocking homodimer = test: Biochemical and biophysical characterization: homodimer dissociation; assay type: binding; details: in vitro at 37° C.
[1] = biological target: T1, IL-2Rβγ (as a pre-assembled heterodimer) (Mus musculus, UniProt P16297+P34902); test: Binding affinity to mouse IL-2Rβγ
T1 sequence (P16297 27-240 limits assumed): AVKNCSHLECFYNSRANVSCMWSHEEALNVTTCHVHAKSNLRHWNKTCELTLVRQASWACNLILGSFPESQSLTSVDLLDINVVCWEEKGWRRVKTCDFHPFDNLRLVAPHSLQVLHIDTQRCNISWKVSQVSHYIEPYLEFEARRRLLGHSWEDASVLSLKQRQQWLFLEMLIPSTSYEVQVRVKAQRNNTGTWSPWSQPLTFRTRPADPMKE
T1 sequence (P34902 23-263 limits assumed): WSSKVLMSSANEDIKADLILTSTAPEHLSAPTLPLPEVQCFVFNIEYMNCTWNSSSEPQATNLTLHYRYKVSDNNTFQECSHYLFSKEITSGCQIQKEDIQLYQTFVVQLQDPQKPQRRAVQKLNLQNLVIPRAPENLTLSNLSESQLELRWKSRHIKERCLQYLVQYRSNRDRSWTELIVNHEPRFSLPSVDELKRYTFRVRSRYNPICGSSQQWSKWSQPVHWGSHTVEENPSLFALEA

[2] = Nonclinical pharmacokinetics in monkeys; assay type: in vivo
Experimental: (§1) Various in vitro and in vivo studies were conducted to characterize the PK of BMS-986326 in the nonclinical setting.

[3] = Linker-cleavage in human serum in vitro (LC-MS/MS); assay type: in vitro ADME; details: up to 72 hours
Experimental: as §1

rats = test: Toxicity studies in rats: ADA and PD effects; assay type: in vivo
Excerpt: (§2) The single- and repeat-dose toxicity of BMS-986326 were characterized in a series of studies in rats for up to 2 weeks and in monkeys up to 12 weeks using selected dosing frequencies. Pivotal good laboratory practice (GLP) repeat-dose studies in both species employed SC administration of BMS-986326 and consisted of two 2-week studies in rats using differing dose frequencies (once weekly [QW] vs twice weekly [2QW]), a 2-week once weekly dosing study in monkeys, and a 12-week (once every 3 week, Q3W) dosing study in monkeys. In addition, single-dose exploratory studies were initially completed in both rats and monkeys to explore the tolerability of BMS-986326, and a single-dose GLP IV toxicity and cardiovascular safety study was also completed in telemeterized monkeys using IV dosing to support IV administration in the first-in-human (FIH) single-ascending dose (SAD) study (IM034001).
(§3) In rats, BMS-986326 was noted to be highly immunogenic, with ADA formation occurring in 84% of BMS-986326-treated rats. In general, the presence of ADA was associated with reduced exposure and loss of PD activity, but was not associated with toxicity.
Intended and unintended PD effects occurred in a dose-dependent manner across all doses of each toxicity study and were generally more pronounced in monkeys than in rats. As an IL-2R agonist, BMS-986326 induced maximal phosphorylation of STAT5 in Treg cells (72% to 95%) across all doses in rats and monkeys, increased Treg cells (up to 63× in monkeys) and/or CD25 expression on CD4 Tregs (up to 4.5× in rats), and raised serum levels of IL-10 (up to 2× in rats and 87× in monkeys). In addition to the desired pharmacologic effects on Tregs, BMS-986326 also led to unintended effects including dose-dependent activation of conventional CD4 and CD8 T cell populations and NK cells, with concomitant elevation of serum IL-5, MCP-1, and perforin. At higher doses of BMS-986326 when dosed weekly in monkeys, increases in B cells (1.6×) and other inflammatory cytokines such as […] (7.9×), IL-1Ra (49×), and IL-6 (5.1×) were also noted. […]

monkeys [4] = test: Toxicity studies in monkeys: ADA and PD effects; assay type: in vivo
Excerpt: as §2, §3
Intended and unintended PD effects occurred in a dose-dependent manner across all doses of each toxicity study and were generally more pronounced in monkeys than in rats. As an IL-2R agonist, BMS-986326 induced maximal phosphorylation of STAT5 in Treg cells (72% to 95%) across all doses in rats and monkeys, increased Treg cells (up to 63× in monkeys) and/or CD25 expression on CD4 Tregs (up to 4.5× in rats), and raised serum levels of IL-10 (up to 2× in rats and 87× in monkeys). In addition to the desired pharmacologic effects on Tregs, BMS-986326 also led to unintended effects including dose-dependent activation of conventional CD4 and CD8 T cell populations and NK cells, with concomitant elevation of serum IL-5, MCP-1, and perforin. At higher doses of BMS-986326 when dosed weekly in monkeys, increases in B cells (1.6×) and other inflammatory cytokines such as […] (7.9×), IL-1Ra (49×), and IL-6 (5.1×) were also noted. These inflammatory cytokines were not elevated when lower doses of BMS-986326 were given less frequently (Q3W) in the 12-week monkey toxicity study.

rats and monkeys = test: Toxicity studies in rats and monkeys: common PD and safety findings; assay type: in vivo; details: GLP pivotal nonclinical studies
Excerpt: as §2
Intended and unintended PD effects occurred in a dose-dependent manner across all doses of each toxicity study and were generally more pronounced in monkeys than in rats. As an IL-2R agonist, BMS-986326 induced maximal phosphorylation of STAT5 in Treg cells (72% to 95%) across all doses in rats and monkeys, increased Treg cells (up to 63× in monkeys) and/or CD25 expression on CD4 Tregs (up to 4.5× in rats), and raised serum levels of IL-10 (up to 2× in rats and 87× in monkeys). […]

monkeys [5] = test: 12-week monkey toxicity study, SC Q3W
Experimental: In the 12-week monkey study, dose range and frequencies were reduced compared to the 2-week study with BMS-986326 administered at 0.0625, 0.125, or 0.25 mg/kg SC Q3W (Days 1, 22, 43, and 64).

monkeys [6] = test: Single-dose exploratory tolerability PK/PD study, SC, monkeys

Sequence of self-blocking homodimer (as listed by the source): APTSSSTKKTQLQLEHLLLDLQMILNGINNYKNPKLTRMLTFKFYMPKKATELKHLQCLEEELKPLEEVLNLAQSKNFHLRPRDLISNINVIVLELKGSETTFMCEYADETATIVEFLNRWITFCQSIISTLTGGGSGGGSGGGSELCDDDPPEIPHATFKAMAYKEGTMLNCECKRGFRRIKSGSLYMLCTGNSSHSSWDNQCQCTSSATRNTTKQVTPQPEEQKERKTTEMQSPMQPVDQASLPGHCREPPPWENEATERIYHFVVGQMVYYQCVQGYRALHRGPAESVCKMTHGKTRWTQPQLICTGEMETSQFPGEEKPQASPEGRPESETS

## BMS-986326: recombinant fusion protein of human IL2 and extracellular domain of human CD25, (GGGS)3 linker, non-covalent self-blocking homodimer
self-blocking homodimer
  dissociation half-life of self-blocking homodimer: approximately 3 days
[1]
  Kd: > 4 µM
[2]
  total serum clearance (CLTs): 18.5 mL/day/kg
[2]; IV
  steady-state volume of distribution (Vss): 0.0734 L/kg
[2]; SC dosing
  absolute bioavailability: 46%
  apparent elimination half-life (T-HALF): 79.2 h
  time of maximum concentration (Tmax): 24 h
[3]
  linker-cleavage: did not show signs of linker-cleavage
rats
  ADA formation, % of treated rats: 84%
  increase in CD25 expression on CD4 Tregs: up to 4.5 ×
  increase in serum levels of IL-10: up to 2 ×
Monkeys [4]
  increase in Treg cells: up to 63 ×
  increase in serum levels of IL-10: ≤ 87 ×
Monkeys [4]; higher doses dosed weekly
  increase in B cells: 1.6 ×
  increase in IFN-7: 7.9 ×
  increase in IL-1Ra: 49 ×
  increase in IL-6: 5.1 ×
Monkeys [4]; pivotal toxicity studies
  ADA development: generally did not develop
Rats and monkeys
  capillary leak syndrome (CLS): has not been observed
Monkeys [5]; 12-week (once every 3 weeks) SC monkey toxicology study
  NOAEL AUC[0-504 hours]: ≤ 306 μ·h/ml
Monkeys [5]; 12-week monkey study, Q3W, across the dose range
  magnitude of increase in Tregs relative to increase in conventional T cells: ≤ 2 times
Monkeys [5]; monkey, in vivo, sc
  eosinophilic or mononuclear cell infiltration into other tissues: no eosinophilic or mononuclear cell infiltration into other tissues
Monkeys [5]; monkeys, 12-week SC Q3W
  NOAEL: 0.25 mg/kg/dose
Monkeys [5]; monkeys, […] Q3W
  mean AUC at NOAEL: 306 µg·h/mL
Monkeys [6]; 2 highest doses tested
  expansion and proliferation of Tconv and CD8+ T cells: dose-dependent expansion and proliferation
Monkeys [6]; single SC […]
  fold increase of % Treg above pre-dose at peak: 4.8 fold
Monkeys [6]; single SC dose
  dose not tolerated: 2.5 mg/kg
  well tolerated doses: up to 0.75 mg/kg
